Data: patent US20260029420A1, “ANTI-CB2 ANTIBODIES AND THEIR USE IN A FLOW CYTOMETRY ASSAY TO MEASURE CELL SURFACE CB2 EXPRESSION” (Hoffmann-La Roche Inc., priority 2022, published 2026)

Columns and labels:
[1] = tested on: pANITA3.1 ratGIPR (DB388); assay: Immunoprecipitation from whole cell lysates; type: binding, rat; parameters: key to Immunoprecipitation signal intensity: “−” no signal; “+”-“+++++” signal intensity; “+”-“+++++” signal intensity; “+”-“+++++” signal intensity; “+”-“+++++” signal intensity; “+”-“+++++” signal intensity
Protocol: The positive clones (Table 1) were further characterized by immunofluorescence (IF; Table 2), Western Blot (Table 3, 1) and Immune precipitation (Table 4, 2) on full length hCB2, hCB1, mCB2 stable-transfected CHO-cell lines in addition to the 2 pANITA constructs.
For immunoprecipitation (IP), whole cell lysates were incubated with the respective antibodies. IP was performed according to established protocols and subsequent western blot as described herein above.

CHO-DUKX parental cells = assay: Flow cytometry on CHO-DUKX cells; type: binding
Excerpt: (§1) FIG. 4: Flow cytometric analysis of hCB2 antibody 1/622 in CHO-DUKX parental and CHO-DUKX_HOMSA_CNR2_Clone_90_CRE-Luc cells transfected with hCB2. For detection an F(ab)2 goat-anti Mouse IgG3 PE antibody was used. The anti-human CB2 antibody 1/622 detects the CB2 in the CHO cells transfected with hCB2 with a signal to background ratio of 10, the CHO-DUKX parental cells are negative.

[2] = target: T1, CHO-DUKX_HOMSA_CNR2_Clone_90_CRE-Luc cells transfected with hCB2 (Homo sapiens, UniProt P34972); assay: Flow cytometry on CHO-DUKX cells; type: binding; details: transfected vs parental untransfected CHO cells
T1 construct: expressed in transfected cells
T1 sequence (P34972 whole entry): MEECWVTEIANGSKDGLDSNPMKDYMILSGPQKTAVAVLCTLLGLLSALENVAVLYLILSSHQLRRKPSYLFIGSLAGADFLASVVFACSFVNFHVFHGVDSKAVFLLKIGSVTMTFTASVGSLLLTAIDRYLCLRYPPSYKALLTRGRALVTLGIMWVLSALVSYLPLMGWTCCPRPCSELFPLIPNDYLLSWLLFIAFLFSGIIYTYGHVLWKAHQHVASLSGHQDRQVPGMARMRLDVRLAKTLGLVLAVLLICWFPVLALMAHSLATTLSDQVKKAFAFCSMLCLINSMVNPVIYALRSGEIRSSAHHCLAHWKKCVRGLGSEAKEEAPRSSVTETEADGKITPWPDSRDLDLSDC
Excerpt: as §1

[3] = target: T2, cell surface CB2 on B-cells (Homo sapiens, UniProt P34972); assay: Flow cytometry detection of baseline cell surface CB2 on B-cells in untreated whole blood; type: binding; details: increasing antibody concentrations
T2 construct: measured in whole blood samples from nine different healthy human volunteers of working-age; endogenous in cells; host or cells: B-cells (and basophils and other leukocytes) in human whole blood
T2 sequence (P34972 whole entry): as above
Protocol: FIG. 5A and FIG. 5B: Comparison of different anti-hCB2 antibodies in detecting cell surface CB2 expression on B-cells. FIG. 5A: Flow cytometric analysis with increasing concentrations of hCB2 antibody 1/622 (black dots) and hCB2 clone 352110 (R&D Systems; dark rectangle). A fluorescence minus one (FMO) serves as control as well as the secondary PE labeled antibody alone (0 μg antibody/sample). FIG. 5B: Flow cytometric analysis with increasing concentrations of mouse IgG3 isotype control clone B10 (SBA; open dots), hCB2 antibody 1/622 (black dots), mouse IgG2b isotype control clone 26114 (R&D Systems; open rectangles) and hCB2 clone 352110 (R&D Systems; dark rectangles). The secondary PE labeled antibody alone serves as 0 μg antibody/sample control.
Detection of baseline expression of cell surface CB2 on B-cells was assessed for clone 1/622 and compared to a commercially available hCB2 antibody (R&D Systems; clone 352110) (5). The flow cytometry experiment was performed as described in Example 3 yet using untreated whole blood samples and using increasing concentrations of the respective anti-human CB2 antibody. […]
For determination of cell surface expression of CB2 on B-cells, median fluorescent intensity (MFI) was analyzed by gating around the CD45^+ CD3^− CD14^− CD19^+ B-cells (see gating strategy in FIG. 6A to FIG. 6E) and acquiring a minimum of 2000 events in this gate (FIG. 6F). […]

[4] = Storage stability of antibody working dilution; type: physicochemical; details: working dilution (5 μg/sample), on ice
Protocol: FIG. 12: Single dose in vivo study monitoring the pharmacodynomic effect of RG7774 on CB2 expression on B-cells in Cynomolgus upon oral dosing. Three healthy cynomolgus monkeys were dosed with 100 mg/kg of the CB2 agonist RG7774. The blood draw at different time points was followed by the incubation with the anti-human CB2 antibody 1/622. The expression of CB2 on the surface of B-cells was analyzed using a lineage marker mix specific for B-cells and T-cells. The B/T-cell CB2 MFI ratio was calculated and normalized to baseline. 0 μM served as 100% baseline receptor expression. […] Due to a storage effect of the antibody working dilution (5 μg/sample) of the anti-human CB2 Ab 1/622 the 4 and 7 hours' time point have been excluded. The working dilution of this antibody is only stable for 2 hours on ice.

B1: hCB2-1/622: murine IgG3 monoclonal anti-human CB2 antibody, VH SEQ ID NO: 1, VL SEQ ID NO: 2, HC SEQ ID NO: 3, LC SEQ ID NO: 4 (antibody)
heavy: EVQLQQSGPELVKPGASVKISCKTSGYTFTEYTMHWVRQSHGKSLEWIGGIDRYNGDTYYNQKFKDKATLTVDRSSSTAYMELRSLTSEDSAVYFCARNGAMDYWGQGISVTVSSATTTAPSVYPLVPGCSDTSGSSVTLGCLVKGYFPEPVTVKWNYGALSSGVRTVSSVLQSGFYSLSSLVTVPSSTWPSQTVICNVAHPASKTELIKRIEPRIPKPSTPPGSSCPPGNILGGPSVFIFPPKPKDALMISLTPKVTCVVVDVSEDDPDVHVSWFVDNKEVHTAWTQPREAQYNSTFRVVSALPIQHQDWMRGKEFKCKVNNKALPAPIERTISKPKGRAQTPQVYTIPPPREQMSKKKVSLTCLVTNFFSEAISVEWERNGELEQDYKNTPPILDSDGTYFLYSKLTVDTDSWLQGEIFTCSVVHEALHNHHTQKNLSRSPGK
light: DVVMTQTPLSLPVSLGDQASISCRSSQSLVHSNGNTYLHWFLQKPGQSPKLLIYKVSIRFSGVPDRFSGSGSGTDFTLKISRVEAEDLGVYFCSQSTHVPPLTFGAGTKLELKRADAAPTVSIFPPSSEQLTSGGASVVCFLNNFYPKDINVKWKIDGSERQNGVLNSWTDQDSKDSTYSMSSTLTLTKDEYERHNSYTCEATHKTSTSPIVKSFNRNEC
Immunoprecipitation signal intensity ([1]; pANITA3.1 ratGIPR (DB388) lysate): − | immunoprecipitation cross reactivity ([1]; rat GIPR): no cross reactivity | flow cytometric detection of CB2 (CHO-DUKX parental cells): negative | signal to noise ratio for detection of human CB2 [2]: good signal to noise ratio | Median fluorescence intensity on B-cells [3]: dose-dependent increase | stability of antibody working dilution [4]: 2 h
